Experimental data reported in patent publication US12528864 (GlaxoSmithKline, dated 2026).

Assays:
[1] = target: T1, human CD96v1 on transiently transfected HEK cells (human, UniProt P40200 22-585); assay: flow cytometry on transiently transfected HEK cells; geometric mean, n = 3
T1 construct: whole, on cells
T1 sequence (looked up): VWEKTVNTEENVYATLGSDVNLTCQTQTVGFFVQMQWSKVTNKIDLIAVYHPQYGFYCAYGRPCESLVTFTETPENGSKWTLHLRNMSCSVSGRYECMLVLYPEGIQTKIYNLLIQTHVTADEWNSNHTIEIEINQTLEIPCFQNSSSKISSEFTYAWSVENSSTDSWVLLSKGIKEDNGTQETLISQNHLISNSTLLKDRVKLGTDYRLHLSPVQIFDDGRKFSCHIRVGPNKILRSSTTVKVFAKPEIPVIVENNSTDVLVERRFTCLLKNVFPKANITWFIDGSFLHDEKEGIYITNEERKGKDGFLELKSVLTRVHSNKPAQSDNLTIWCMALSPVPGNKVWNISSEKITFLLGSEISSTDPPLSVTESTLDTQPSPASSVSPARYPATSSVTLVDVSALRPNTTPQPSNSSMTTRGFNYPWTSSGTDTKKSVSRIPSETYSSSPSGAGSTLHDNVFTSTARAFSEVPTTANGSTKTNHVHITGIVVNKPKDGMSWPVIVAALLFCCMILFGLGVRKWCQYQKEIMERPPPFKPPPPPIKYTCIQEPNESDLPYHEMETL

[2] = target: T2, blood derived cynomolgus monkey CD96v2 on transiently transfected HEK cells (cynomolgus monkey); assay: as above
T2 construct: also called Blood derived Cyno CD96v2

[3] = target: T3, cynomolgus monkey CD96v2 expressed on cells (CHO cells; transiently transfected HEK cells) (cynomolgus monkey, UniProt A0A2K5TWV6 22-569); assay: as above
T3 construct: the cell is named under assay; also called CHO-cyCD96; Cyno CD96v2
T3 sequence: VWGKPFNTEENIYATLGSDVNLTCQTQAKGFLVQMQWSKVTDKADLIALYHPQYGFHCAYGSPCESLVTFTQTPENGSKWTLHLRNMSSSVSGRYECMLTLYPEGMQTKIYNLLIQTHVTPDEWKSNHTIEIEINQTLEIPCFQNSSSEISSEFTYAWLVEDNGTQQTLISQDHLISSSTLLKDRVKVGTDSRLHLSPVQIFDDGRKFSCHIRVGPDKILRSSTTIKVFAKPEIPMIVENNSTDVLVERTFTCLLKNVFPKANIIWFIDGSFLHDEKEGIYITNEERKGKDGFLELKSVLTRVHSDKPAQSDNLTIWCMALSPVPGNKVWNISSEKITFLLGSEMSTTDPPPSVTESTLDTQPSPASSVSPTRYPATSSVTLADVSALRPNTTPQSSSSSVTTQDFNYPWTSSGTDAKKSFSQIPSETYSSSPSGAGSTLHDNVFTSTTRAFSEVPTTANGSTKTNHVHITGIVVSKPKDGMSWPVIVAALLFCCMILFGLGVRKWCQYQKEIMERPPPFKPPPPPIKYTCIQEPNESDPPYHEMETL

[4] = target: T4, human CD96v2 expressed on cells (CHO cells; transiently transfected HEK cells) (human, UniProt P40200-2 22-569); assay: as above
T4 construct: whole, on cells; the cell is named under assay; also called CHO-huCD96; hCD96v2
T4 sequence (looked up): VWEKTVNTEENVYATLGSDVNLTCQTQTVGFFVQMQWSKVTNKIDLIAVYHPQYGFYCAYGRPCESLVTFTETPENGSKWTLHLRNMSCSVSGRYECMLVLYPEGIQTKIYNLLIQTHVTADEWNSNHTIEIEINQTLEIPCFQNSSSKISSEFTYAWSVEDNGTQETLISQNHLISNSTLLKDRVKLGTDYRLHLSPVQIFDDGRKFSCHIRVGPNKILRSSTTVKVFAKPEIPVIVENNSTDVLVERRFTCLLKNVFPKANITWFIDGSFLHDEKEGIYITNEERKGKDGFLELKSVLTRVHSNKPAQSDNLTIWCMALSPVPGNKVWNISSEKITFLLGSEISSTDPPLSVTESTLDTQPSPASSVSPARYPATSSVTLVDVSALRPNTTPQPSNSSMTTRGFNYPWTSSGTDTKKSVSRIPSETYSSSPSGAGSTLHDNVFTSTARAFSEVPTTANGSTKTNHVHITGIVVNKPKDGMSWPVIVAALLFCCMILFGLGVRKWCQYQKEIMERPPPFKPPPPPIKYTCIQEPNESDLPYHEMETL

[5] = target: T4, human CD96v2 expressed on cells (CHO …); assay: flow cytometry, inhibition of human CD155-Fc-AF647 binding to CHO cells expressing human CD96v2; competitor CD155-Fc
[6] = target: T4, human CD96v2 expressed on cells (CHO …); assay: flow cytometry on CHO cells expressing human CD96v2

EC50 [1]: 5.28 nM | EC50 [2]: 7.34 nM | EC50 [3]: 7.88 nM | EC50 [4]: 6.44 nM | IC50 [5]: 1.55 nM | EC50 [6]: 0.05 nM
B1: 42Y073-86F08-66 (antibody)
heavy: not shown
light: DIQLTQSPSSLSASVGDRVTITCRASQSISSYLNWYQQKPGKAPKLLIYAASSLQSGVPSRFSGSGSGTDFTLTISSLQPEDFATYYCQQVLHTITFGGGTKVEIKRTVAAPSVFIFPPSDEQLKSGTASVVCLLNNFYPREAKVQWKVDNALQSGNSQESVTEQDSKDSTYSLSSTLTLSKADYEKHKVYACEVTHQGLSSPVTKSFNRGEC
notes: also called GSK 6097608; GSK6097608
